Measured values published in patent publication US20180155451A1 (published 2018).

B1: GpH7-A5/GpH7-B3 variant (T335_07I)/GpL16-k0 (antibody, human IgG1, kappa)
heavy 1: not shown
heavy 2: not shown
light: DIVMTQSPLSLPVTPGEPASISCQASESLVHSNRNTYLHWYLQKPGQSPQLLIYKVSNRFSGVPDRFSGSGSGTDFTLKISRVEAEDVGVYYCSQNTHVPPTFGQGTKVEIERTVAAPSVFIFPPSDEQLKSGTASVVCLLNNFYPREAKVQWKVDNALQSGNSQESVTEQDSKDSTYSLSSTLTLSKADYEKHKVYACEVTHQGLSSPVTKSFNRGEC
notes: Heterodimerized; only the B3 chain altered; also called He Ab T335_07I
B2: GpH7-A5/GpH7-B3 variant (T335_08L)/GpL16-k0 (antibody, human IgG1, kappa)
heavy 1: not shown
heavy 2: not shown
light: B1 light
notes: Heterodimerized; only the B3 chain altered; also called He Ab T335_08L
B3: GpH7-A5/GpH7-B3 variant (T335_09D)/GpL16-k0 (antibody, human IgG1, kappa)
heavy 1: not shown
heavy 2: not shown
light: B1 light
notes: Heterodimerized; only the B3 chain altered; also called He Ab T335_09D
B4: GpH7-A5/GpH7-B3 variant (T335_10E)/GpL16-k0 (antibody, human IgG1, kappa)
heavy 1: not shown
heavy 2: not shown
light: B1 light
notes: Heterodimerized; only the B3 chain altered; also called He Ab T335_10E
B5: GpH7-A5/GpH7-B3 variant (T335_11K)/GpL16-k0 (antibody, human IgG1, kappa)
heavy 1: not shown
heavy 2: not shown
light: B1 light
notes: Heterodimerized; only the B3 chain altered; also called He Ab T335_11K
B6: GpH7-A5/GpH7-B3 variant (T335_12R)/GpL16-k0 (antibody, human IgG1, kappa)
heavy 1: not shown
heavy 2: not shown
light: B1 light
notes: Heterodimerized; only the B3 chain altered; also called He Ab T335_12R
B7: GpH7-B3 variant (T335_08L)/GpL16-k0 (antibody, human IgG1, kappa)
heavy: not shown
light: B1 light
notes: Homodimerized; both H chains altered; also called Ho Ab T335_08L
B8: GpH7-B3 variant (T335_09D)/GpL16-k0 (antibody, human IgG1, kappa)
heavy: not shown
light: B1 light
notes: Homodimerized; both H chains altered; also called Ho Ab T335_09D
B9: GpH7-B3 variant (T335_10E)/GpL16-k0 (antibody, human IgG1, kappa)
heavy: not shown
light: B1 light
notes: Homodimerized; both H chains altered; also called Ho Ab T335_10E
B10: GpH7-B3 variant (T335_11K)/GpL16-k0 (antibody, human IgG1, kappa)
heavy: not shown
light: B1 light
notes: Homodimerized; both H chains altered; also called Ho Ab T335_11K
B11: GpH7-B3 variant (T335_12R)/GpL16-k0 (antibody, human IgG1, kappa)
heavy: not shown
light: B1 light
notes: Homodimerized; both H chains altered; also called Ho Ab T335_12R
B12: GpH7-B3 variant (T335_15Y)/GpL16-k0 (antibody, human IgG1, kappa)
heavy: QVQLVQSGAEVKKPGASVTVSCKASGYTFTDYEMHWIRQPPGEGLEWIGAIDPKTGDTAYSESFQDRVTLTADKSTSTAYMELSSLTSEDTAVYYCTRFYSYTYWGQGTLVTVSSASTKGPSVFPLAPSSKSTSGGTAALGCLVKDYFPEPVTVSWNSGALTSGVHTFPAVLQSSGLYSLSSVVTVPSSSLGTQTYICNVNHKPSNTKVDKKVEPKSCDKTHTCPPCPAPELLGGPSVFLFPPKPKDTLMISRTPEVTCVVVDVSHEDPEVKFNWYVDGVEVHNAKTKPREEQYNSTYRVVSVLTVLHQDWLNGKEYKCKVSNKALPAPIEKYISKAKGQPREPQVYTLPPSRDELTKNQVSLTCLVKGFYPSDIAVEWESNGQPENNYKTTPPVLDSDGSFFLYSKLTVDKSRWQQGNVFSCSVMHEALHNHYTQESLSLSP
light: B1 light
notes: Homodimerized; both H chains altered; also called Ho Ab T335_15Y
B13: GpH7-B3 variant (T335_16H)/GpL16-k0 (antibody, human IgG1, kappa)
heavy: not shown
light: B1 light
notes: Homodimerized; both H chains altered; also called Ho Ab T335_16H
B14: GpH7-B3 variant (T335_18N)/GpL16-k0 (antibody, human IgG1, kappa)
heavy: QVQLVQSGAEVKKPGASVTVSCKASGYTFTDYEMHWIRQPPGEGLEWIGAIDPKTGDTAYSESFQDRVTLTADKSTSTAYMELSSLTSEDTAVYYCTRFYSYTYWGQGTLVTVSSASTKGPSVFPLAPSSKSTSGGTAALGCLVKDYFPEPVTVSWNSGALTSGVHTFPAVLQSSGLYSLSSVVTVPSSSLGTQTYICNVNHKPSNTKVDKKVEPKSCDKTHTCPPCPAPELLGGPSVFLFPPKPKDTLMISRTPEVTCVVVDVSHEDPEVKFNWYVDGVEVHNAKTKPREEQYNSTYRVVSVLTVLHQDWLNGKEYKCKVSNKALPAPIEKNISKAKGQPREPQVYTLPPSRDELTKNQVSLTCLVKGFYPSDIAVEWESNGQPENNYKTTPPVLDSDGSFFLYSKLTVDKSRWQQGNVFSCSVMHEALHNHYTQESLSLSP
light: B1 light
notes: Homodimerized; both H chains altered; also called Ho Ab T335_18N
B15: GpH7-B3 variant (T335_19Q)/GpL16-k0 (antibody, human IgG1, kappa)
heavy: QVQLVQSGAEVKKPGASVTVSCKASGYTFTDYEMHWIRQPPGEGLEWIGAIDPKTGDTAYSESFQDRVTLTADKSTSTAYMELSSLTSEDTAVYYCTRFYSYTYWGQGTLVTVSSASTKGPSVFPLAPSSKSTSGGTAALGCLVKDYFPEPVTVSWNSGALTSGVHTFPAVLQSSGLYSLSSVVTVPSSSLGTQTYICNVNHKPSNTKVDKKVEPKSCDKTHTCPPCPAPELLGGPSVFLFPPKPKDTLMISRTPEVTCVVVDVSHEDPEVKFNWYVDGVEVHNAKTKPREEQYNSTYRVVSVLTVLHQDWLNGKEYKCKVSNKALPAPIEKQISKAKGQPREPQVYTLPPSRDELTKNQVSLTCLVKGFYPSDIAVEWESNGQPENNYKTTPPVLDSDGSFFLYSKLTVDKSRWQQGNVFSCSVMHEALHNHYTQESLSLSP
light: B1 light
notes: Homodimerized; both H chains altered; also called Ho Ab T335_19Q
B16: GpH7-B3 variant (T335_20W)/GpL16-k0 (antibody, human IgG1, kappa)
heavy: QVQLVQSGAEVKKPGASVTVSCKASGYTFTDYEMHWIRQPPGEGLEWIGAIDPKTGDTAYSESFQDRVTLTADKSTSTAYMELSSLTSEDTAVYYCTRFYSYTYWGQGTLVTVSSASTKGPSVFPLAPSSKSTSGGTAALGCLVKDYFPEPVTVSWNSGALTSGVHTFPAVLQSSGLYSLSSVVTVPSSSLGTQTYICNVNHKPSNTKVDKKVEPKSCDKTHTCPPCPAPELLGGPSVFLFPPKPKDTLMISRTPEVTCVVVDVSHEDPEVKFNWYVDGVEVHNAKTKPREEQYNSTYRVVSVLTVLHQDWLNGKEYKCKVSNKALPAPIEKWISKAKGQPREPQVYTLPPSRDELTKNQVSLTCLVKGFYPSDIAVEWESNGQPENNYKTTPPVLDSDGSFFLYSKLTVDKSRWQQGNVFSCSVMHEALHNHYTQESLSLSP
light: B1 light
notes: Homodimerized; both H chains altered; also called Ho Ab T335_20W
B17: GpH7-B3 variant (Y296_06M)/GpL16-k0 (antibody, human IgG1, kappa)
heavy: not shown
light: B1 light
notes: Homodimerized; both H chains altered; also called Ho Ab Y296_06M
B18: GpH7-B3 variant (Y296_11K)/GpL16-k0 (antibody, human IgG1, kappa)
heavy: not shown
light: B1 light
notes: Homodimerized; both H chains altered; also called Ho Ab Y296_11K
B19: GpH7-B3 variant (Y296_12R)/GpL16-k0 (antibody, human IgG1, kappa)
heavy: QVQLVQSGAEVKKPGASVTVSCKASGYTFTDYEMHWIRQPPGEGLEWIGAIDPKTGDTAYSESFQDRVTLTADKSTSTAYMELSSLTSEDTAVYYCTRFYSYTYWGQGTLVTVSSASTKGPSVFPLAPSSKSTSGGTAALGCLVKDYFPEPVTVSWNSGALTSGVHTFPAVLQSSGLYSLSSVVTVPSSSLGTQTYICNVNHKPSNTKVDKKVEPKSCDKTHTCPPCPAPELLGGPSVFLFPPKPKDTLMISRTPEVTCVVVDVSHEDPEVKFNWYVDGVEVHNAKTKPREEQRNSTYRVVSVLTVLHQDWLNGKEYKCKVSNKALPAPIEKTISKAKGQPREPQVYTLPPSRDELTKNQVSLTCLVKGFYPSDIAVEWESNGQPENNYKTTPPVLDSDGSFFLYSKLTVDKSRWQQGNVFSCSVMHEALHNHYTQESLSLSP
light: B1 light
notes: Homodimerized; both H chains altered; also called Ho Ab Y296_12R
B20: GpH7-B3 variant (Y296_16H)/GpL16-k0 (antibody, human IgG1, kappa)
heavy: not shown
light: B1 light
notes: Homodimerized; both H chains altered; also called Ho Ab Y296_16H
B21: GpH7-B3 variant (Y296_20W)/GpL16-k0 (antibody, human IgG1, kappa)
heavy: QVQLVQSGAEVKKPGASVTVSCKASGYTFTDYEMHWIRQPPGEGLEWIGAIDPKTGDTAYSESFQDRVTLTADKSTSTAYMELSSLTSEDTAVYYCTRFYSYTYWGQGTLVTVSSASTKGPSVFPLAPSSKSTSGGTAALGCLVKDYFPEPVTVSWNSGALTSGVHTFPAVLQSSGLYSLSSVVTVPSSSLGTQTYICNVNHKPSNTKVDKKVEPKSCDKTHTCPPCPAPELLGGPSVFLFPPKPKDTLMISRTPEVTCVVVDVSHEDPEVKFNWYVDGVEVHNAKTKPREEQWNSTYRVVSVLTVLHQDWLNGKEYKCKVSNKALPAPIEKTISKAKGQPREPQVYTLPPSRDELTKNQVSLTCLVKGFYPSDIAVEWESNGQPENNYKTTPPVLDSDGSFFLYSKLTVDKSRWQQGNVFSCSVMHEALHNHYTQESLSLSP
light: B1 light
notes: Homodimerized; both H chains altered; also called Ho Ab Y296_20W
B22: GpH7-B3 variant (Y300_02A)/GpL16-k0 (antibody, human IgG1, kappa)
heavy: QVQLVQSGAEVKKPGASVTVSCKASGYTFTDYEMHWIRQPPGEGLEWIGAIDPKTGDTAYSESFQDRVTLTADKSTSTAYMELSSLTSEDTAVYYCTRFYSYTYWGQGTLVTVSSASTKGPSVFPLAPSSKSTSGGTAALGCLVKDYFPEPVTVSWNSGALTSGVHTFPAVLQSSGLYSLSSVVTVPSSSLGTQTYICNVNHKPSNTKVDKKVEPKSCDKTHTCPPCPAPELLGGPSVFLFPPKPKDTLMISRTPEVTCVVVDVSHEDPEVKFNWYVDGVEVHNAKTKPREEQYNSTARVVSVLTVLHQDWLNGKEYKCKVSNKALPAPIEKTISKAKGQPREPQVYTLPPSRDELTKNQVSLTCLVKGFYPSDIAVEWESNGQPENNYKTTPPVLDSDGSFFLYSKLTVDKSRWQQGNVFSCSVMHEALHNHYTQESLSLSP
light: B1 light
notes: Homodimerized; both H chains altered; also called Ho Ab Y300_02A
B23: GpH7-B3 variant (Y300_03V)/GpL16-k0 (antibody, human IgG1, kappa)
heavy: not shown
light: B1 light
notes: Homodimerized; both H chains altered; also called Ho Ab Y300_03V
B24: GpH7-B3 variant (Y300_06M)/GpL16-k0 (antibody, human IgG1, kappa)
heavy: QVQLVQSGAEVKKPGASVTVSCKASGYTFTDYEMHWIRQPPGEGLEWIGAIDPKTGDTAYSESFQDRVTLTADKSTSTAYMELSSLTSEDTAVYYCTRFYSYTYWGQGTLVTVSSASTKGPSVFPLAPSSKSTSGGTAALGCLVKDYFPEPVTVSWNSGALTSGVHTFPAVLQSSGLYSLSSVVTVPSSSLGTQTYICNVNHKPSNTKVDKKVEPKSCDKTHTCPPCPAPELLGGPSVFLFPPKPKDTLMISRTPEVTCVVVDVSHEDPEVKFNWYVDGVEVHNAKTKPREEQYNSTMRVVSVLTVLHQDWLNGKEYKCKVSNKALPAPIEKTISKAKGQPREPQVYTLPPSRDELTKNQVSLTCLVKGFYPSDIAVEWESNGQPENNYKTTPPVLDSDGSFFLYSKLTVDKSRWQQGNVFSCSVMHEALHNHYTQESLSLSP
light: B1 light
notes: Homodimerized; both H chains altered; also called Ho Ab Y300_06M
B25: GpH7-B3 variant (Y300_08L)/GpL16-k0 (antibody, human IgG1, kappa)
heavy: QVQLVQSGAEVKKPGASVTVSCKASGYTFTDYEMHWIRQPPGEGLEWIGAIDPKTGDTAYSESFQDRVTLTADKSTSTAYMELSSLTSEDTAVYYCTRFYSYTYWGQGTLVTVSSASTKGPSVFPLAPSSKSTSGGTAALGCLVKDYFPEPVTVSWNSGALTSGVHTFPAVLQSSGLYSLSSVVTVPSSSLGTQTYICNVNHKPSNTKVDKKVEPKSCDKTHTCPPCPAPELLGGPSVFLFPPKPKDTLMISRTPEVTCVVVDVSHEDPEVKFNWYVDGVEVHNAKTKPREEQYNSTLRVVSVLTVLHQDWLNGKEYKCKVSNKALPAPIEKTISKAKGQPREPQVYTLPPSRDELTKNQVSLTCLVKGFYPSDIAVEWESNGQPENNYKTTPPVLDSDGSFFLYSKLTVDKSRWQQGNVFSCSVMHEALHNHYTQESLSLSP
light: B1 light
notes: Homodimerized; both H chains altered; also called Ho Ab Y300_08L
B26: GpH7-B3 variant (Y300_11K)/GpL16-k0 (antibody, human IgG1, kappa)
heavy: not shown
light: B1 light
notes: Homodimerized; both H chains altered; also called Ho Ab Y300_11K
B27: GpH7-B3 variant (Y300_13S)/GpL16-k0 (antibody, human IgG1, kappa)
heavy: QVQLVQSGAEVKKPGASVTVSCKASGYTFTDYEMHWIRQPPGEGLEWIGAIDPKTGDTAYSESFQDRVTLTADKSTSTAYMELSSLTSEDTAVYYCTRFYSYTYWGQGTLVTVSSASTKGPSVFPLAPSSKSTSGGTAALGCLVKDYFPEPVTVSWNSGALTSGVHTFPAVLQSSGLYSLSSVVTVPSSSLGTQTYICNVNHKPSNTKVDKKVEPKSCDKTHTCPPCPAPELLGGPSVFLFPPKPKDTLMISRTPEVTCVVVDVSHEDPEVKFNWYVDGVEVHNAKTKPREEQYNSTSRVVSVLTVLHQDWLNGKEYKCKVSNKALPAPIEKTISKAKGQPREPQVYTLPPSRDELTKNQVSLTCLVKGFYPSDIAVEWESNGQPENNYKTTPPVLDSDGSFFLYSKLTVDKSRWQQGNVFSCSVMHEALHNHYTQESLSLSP
light: B1 light
notes: Homodimerized; both H chains altered; also called Ho Ab Y300_13S
B28: GpH7-B3 variant (Y300_14T)/GpL16-k0 (antibody, human IgG1, kappa)
heavy: not shown
light: B1 light
notes: Homodimerized; both H chains altered; also called Ho Ab Y300_14T
B29: GpH7-B3 variant (Y300_19Q)/GpL16-k0 (antibody, human IgG1, kappa)
heavy: not shown
light: B1 light
notes: Homodimerized; both H chains altered; also called Ho Ab Y300_19Q
B30: GpH7-B3 variant (Y300_20W)/GpL16-k0 (antibody, human IgG1, kappa)
heavy: not shown
light: B1 light
notes: Homodimerized; both H chains altered; also called Ho Ab Y300_20W

Target: T1, FcγRIa extracellular domain with C-terminal His tag (human, UniProt P12314 16-292)
T1 construct: extracellular domain; Expressed in FreeStyle293 cells; used as analyte in Biacore; also called FcgRI; 1a; not shown: His tag at the C terminus
T1 sequence (P12314 16-292): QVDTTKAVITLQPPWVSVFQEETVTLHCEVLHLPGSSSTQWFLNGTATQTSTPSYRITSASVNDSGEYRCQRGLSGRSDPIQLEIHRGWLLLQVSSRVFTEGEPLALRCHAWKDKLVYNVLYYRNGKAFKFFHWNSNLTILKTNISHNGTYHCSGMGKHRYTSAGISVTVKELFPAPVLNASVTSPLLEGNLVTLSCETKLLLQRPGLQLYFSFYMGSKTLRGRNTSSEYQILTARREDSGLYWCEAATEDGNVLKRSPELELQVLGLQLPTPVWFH
Assay: SPR (Biacore), captured antibody, FcγRIa analyte; relative to GpH7-A5/GpH7-B3/GpL16-k0 = 100

He/Con_1a	Binder
109 % of control	B1
115 % of control	B2
108 % of control	B3
109 % of control	B4
111 % of control	B5
113 % of control	B6

Target: T1, FcγRIa extracellular domain with …
Assay: SPR (Biacore), captured antibody, FcγRIa analyte; relative to GpH7-B3/GpL16-k0 = 100

Ho/Con_1a	Binder
105 % of control	B7
107 % of control	B8
108 % of control	B9
103 % of control	B10
106 % of control	B11
106 % of control	B12
104 % of control	B13
102 % of control	B14
105 % of control	B15
104 % of control	B16
104 % of control	B17
102 % of control	B18
103 % of control	B19
105 % of control	B20
106 % of control	B21
110 % of control	B22
112 % of control	B23
111 % of control	B24
109 % of control	B25
101 % of control	B26
110 % of control	B27
110 % of control	B28
110 % of control	B29
110 % of control	B30
